Experimental data as given in PMC12102759.

B1: AZIN2 peptide 1-16 (Antizyme inhibitor 2), 16-mer library wild type / NSP3 ADRP (ORF1ab Nsp3b ADRP, residues 1023-1192) (parent)
chain 1: MAGYLSESDFVMVEEG
chain 2: not shown
B2: TET3 peptide 458-473 (Methylcytosine dioxygenase TET3), 16-mer library wild type / NSP3 SUD-M (ORF1ab Nsp3c SUD-M, residues 1356-1493) (parent)
chain 1: DPMAELEQLLGSASDY
chain 2: LPSIISNEKQEILGTVSWNLREMLAHAEETRKLMPVCVETKAIVSTIQRKYKGIKIQEGVVDYGARFYFYTSKTTVASLINTLNDLNETLVTMPLGYVTHGLNLEEAARYMRSLKVPATVSVSSPDAVTAYNGYLTSS
B3: NEK9 peptide 736-751 (Serine/threonine-protein kinase Nek9), 16-mer library wild type / NSP9 (ORF1ab Nsp9, residues 4141-4253) (parent)
chain 1: NSSGLSIGTVFQSSSP
chain 2: NNELSPVALRQMSCAAGTTQTACTDDNALAYYNTTKGGRFVLALLSDLQDLKWARFPKSDGTGTIYTELEPPCRFVTDTPKGPKVKYLYFIKGLNNLNRGMVLGSLAATVRLQ

Variants of: B1
Conditions: with NSP3 ADRP (ORF1ab Nsp3b ADRP, residues 1023-1192); bait immobilised on MaxiSorp plates (10 µg), library pre-cleared on GST, 2 h binding at 4 °C, five washes; one round per day, days 1-4; value from days 2 and 3; keep out of graded; scale: average fractional NGS count over selection days 2 and 3

Variant | screen value
chain 1 G16W | 5.19e-05
chain 1 G16M | 3.8e-05
chain 1 A2G | 0
chain 1 A2H | 0
chain 1 A2M | 0
chain 1 V11R | 4.17e-05
chain 1 V11Q | 1.04e-05
chain 1 V11N | 1.5e-05
chain 1 V11K | 2.1e-05
chain 1 S8D | 1.43e-05
chain 1 S8N | 5.33e-05
chain 1 S8F | 4.02e-05
chain 1 S8Q | 2.27e-05
chain 1 E15F | 0
chain 1 E15M | 0
chain 1 E15A | 1.82e-05
chain 1 E15K | 0
chain 1 E15V | 2.58e-05
chain 1 E15Y | 0
chain 1 E15W | 0
chain 1 Y4F | 1.08e-05

Variants of: B2
Conditions: with NSP3 SUD-M (ORF1ab Nsp3c SUD-M, residues 1356-1493); bait immobilised on MaxiSorp plates (10 µg), library pre-cleared on GST, 2 h binding at 4 °C, five washes; one round per day, days 1-4; value from days 2 and 3; keep out of graded; scale: average fractional NGS count over selection days 2 and 3

Variant | screen value
chain 1 DPMAQLEQLLGSASDY [chain 1 E5Q] | 0
chain 1 DPMAKLEQLLGSASDY [chain 1 E5K] | 0
chain 1 DPMAELEQLQGSASDY [chain 1 L10Q] | 0
chain 1 DPMAELEQLTGSASDY [chain 1 L10T] | 0
chain 1 DPMAELEQLRGSASDY [chain 1 L10R] | 0
chain 1 DPMAELEQLPGSASDY [chain 1 L10P] | 0
chain 1 DPMAELEQTLGSASDY [chain 1 L9T] | 0
chain 1 DPMAELEQALGSASDY [chain 1 L9A] | 0
chain 1 DPMAELEQYLGSASDY [chain 1 L9Y] | 0
chain 1 DPMAELEQNLGSASDY [chain 1 L9N] | 0
chain 1 DPMAELEQLLGSAFDY [chain 1 S14F] | 0
chain 1 DPMAELEQLLGSAWDY [chain 1 S14W] | 0
chain 1 DPMAELEQLLGSAIDY [chain 1 S14I] | 0
chain 1 DPMAELEQLLGSNSDY [chain 1 A13N] | 0
chain 1 DPMAELEQLLGSESDY [chain 1 A13E] | 0
chain 1 DPMAELEQLLGSDSDY [chain 1 A13D] | 0
chain 1 DPMAELEQLLGSVSDY [chain 1 A13V] | 0
chain 1 DPMAELEQLLGSASNY [chain 1 D15N] | 0
chain 1 DPMAELEQLLGSASKY [chain 1 D15K] | 0
chain 1 DPMAELEQLLGSASGY [chain 1 D15G] | 0
chain 1 DPMAELEKLLGSASDY [chain 1 Q8K] | 0

Variant | screen value
chain 1 DPMAELEMLLGSASDY [chain 1 Q8M] | 0
chain 1 DPMAELESLLGSASDY [chain 1 Q8S] | 0
chain 1 DPMAELEHLLGSASDY [chain 1 Q8H] | 0
chain 1 DPMAELETLLGSASDY [chain 1 Q8T] | 0
chain 1 DPMAELEPLLGSASDY [chain 1 Q8P] | 0
chain 1 DPMAELERLLGSASDY [chain 1 Q8R] | 0
chain 1 DPMAELEQLLGSASDH [chain 1 Y16H] | 0
chain 1 DPMAELEQLLGSASDA [chain 1 Y16A] | 0
chain 1 DPMAELYQLLGSASDY [chain 1 E7Y] | 0
chain 1 DPMAELIQLLGSASDY [chain 1 E7I] | 0
chain 1 DPMAELGQLLGSASDY [chain 1 E7G] | 0
chain 1 DPMAELKQLLGSASDY [chain 1 E7K] | 0
chain 1 DPMAELTQLLGSASDY [chain 1 E7T] | 0
chain 1 DPMAELNQLLGSASDY [chain 1 E7N] | 1.67e-05
chain 1 DPTAELEQLLGSASDY [chain 1 M3T] | 0
chain 1 DPQAELEQLLGSASDY [chain 1 M3Q] | 0
chain 1 DPNAELEQLLGSASDY [chain 1 M3N] | 0
chain 1 DPSAELEQLLGSASDY [chain 1 M3S] | 0
chain 1 DPMAELEQLLHSASDY [chain 1 G11H] | 0
chain 1 DPMAELEQLLSSASDY [chain 1 G11S] | 0
chain 1 DPMAELEQLLASASDY [chain 1 G11A] | 0

Variant | screen value
chain 1 DPMAELEQLLWSASDY [chain 1 G11W] | 0
chain 1 DPMAELEQLLISASDY [chain 1 G11I] | 0
chain 1 DPMAEMEQLLGSASDY [chain 1 L6M] | 0
chain 1 DPMAEWEQLLGSASDY [chain 1 L6W] | 0
chain 1 DPMAEREQLLGSASDY [chain 1 L6R] | 0
chain 1 DPMAEKEQLLGSASDY [chain 1 L6K] | 0
chain 1 DPMAESEQLLGSASDY [chain 1 L6S] | 0
chain 1 DPMAELEQLLGEASDY [chain 1 S12E] | 0
chain 1 DPMAELEQLLGQASDY [chain 1 S12Q] | 0
chain 1 DPMAELEQLLGGASDY [chain 1 S12G] | 0
chain 1 DPMAELEQLLGRASDY [chain 1 S12R] | 0
chain 1 DPMAELEQLLGKASDY [chain 1 S12K] | 0
chain 1 DPMAELEQLLGIASDY [chain 1 S12I] | 0
chain 1 DPMLELEQLLGSASDY [chain 1 A4L] | 0
chain 1 DPMNELEQLLGSASDY [chain 1 A4N] | 0
chain 1 DDMAELEQLLGSASDY [chain 1 P2D] | 0
chain 1 DWMAELEQLLGSASDY [chain 1 P2W] | 0
chain 1 DRMAELEQLLGSASDY [chain 1 P2R] | 0
chain 1 DAMAELEQLLGSASDY [chain 1 P2A] | 0
chain 1 DHMAELEQLLGSASDY [chain 1 P2H] | 0

Variants of: B3
Conditions: with NSP9 (ORF1ab Nsp9, residues 4141-4253); bait immobilised on MaxiSorp plates (10 µg), library pre-cleared on GST, 2 h binding at 4 °C, five washes; one round per day, days 1-4; value from days 2 and 3; keep out of graded; scale: average fractional NGS count over selection days 2 and 3

Variant | screen value
chain 1 NSSGLSIGTVFQSESP [chain 1 S14E] | 0
chain 1 NSSGLSIGTVFQSISP [chain 1 S14I] | 0.0016
chain 1 NSSGLSIGTVFQSNSP [chain 1 S14N] | 3.83e-05
chain 1 NSSGLSIGTVFQSFSP [chain 1 S14F] | 0.000194
chain 1 NSSGLSIGTVFQSTSP [chain 1 S14T] | 0
chain 1 NSSGLSIGTDFQSSSP [chain 1 V10D] | 0.000207
chain 1 NSSGLSIGTTFQSSSP [chain 1 V10T] | 0
chain 1 NSSGLSIGTSFQSSSP [chain 1 V10S] | 5.93e-05
chain 1 NSSGLSIGTFFQSSSP [chain 1 V10F] | 0
chain 1 NSSGLSIGSVFQSSSP [chain 1 T9S] | 0
chain 1 NSSGLSIGGVFQSSSP [chain 1 T9G] | 0
chain 1 NSSGLSIGYVFQSSSP [chain 1 T9Y] | 2.09e-05
chain 1 NSSGLSIGEVFQSSSP [chain 1 T9E] | 0.00124
chain 1 NSSGLSIGPVFQSSSP [chain 1 T9P] | 6.33e-05
chain 1 NSSGLSIGNVFQSSSP [chain 1 T9N] | 0.000187
chain 1 NSSGLSIGHVFQSSSP [chain 1 T9H] | 1.62e-05
chain 1 NSSGLSIGLVFQSSSP [chain 1 T9L] | 0
chain 1 NSSGLSIGDVFQSSSP [chain 1 T9D] | 0.00026
chain 1 NSSGLSIGTVFQSSLP [chain 1 S15L] | 2.69e-05
chain 1 NSSGLSIGTVFQSSGP [chain 1 S15G] | 3.5e-05
chain 1 NSSGLSIGTVFQSSKP [chain 1 S15K] | 0
chain 1 NSSGLSIGTVFQSSAP [chain 1 S15A] | 2.5e-05
chain 1 NSSGLSIGTVFQSSMP [chain 1 S15M] | 0.000159
chain 1 NSSGLSIGTVFQSSIP [chain 1 S15I] | 4.92e-05
